Assay results reported in patent US20140348819A1, “Methods of Treating Cancer” (Dana-Farber Cancer Institute, Inc., priority 2011, published 2014).

System: six V600E BRAF melanoma cell lines
Assay: Screening of recombinant RTK ligands for ability to confer resistance to BRAFi (PLX4720) or MEKi (PD184352) (Table 4)
Format: cell-based, human
Parameters: ability of recombinant RTK ligand to confer resistance / ability of recombinant RTK ligand to confer resistance (screening value): scale not given here
Procedure, shortened: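 Six V600E BRAF melanoma lines treated with PLX4720 or PD184352 after addition of 22 recombinant RTK ligands, scored for drug resistance. Activation of selected RTKs confirmed by western blotting and high-throughput tyrosine kinase phosphorylation profiling.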

B1: BDNF (protein, UniProt P23560 19-247, looked up)
Neurotrophic factor BDNF …: APMKEANIRGQGGLAYPGVRTHGTLESVNGPKAGSRGLTSLADTFEHVIEELLDEDQKVRPNEENNKDADLYTSRVMLSSQVPLEPPLLFLLEEYKNYLDAANMSMRVRRHSDPARRGELSVCDSISEWVTAADKKTAVDMSGGTVTVLEKVPVSKGQLKQYFYETKCNPMGYTKEGCRGIDKRHWNSQCRTTQSYVRALTMDSKKRIGWRFIRIDTSCVCTLTIKRGR
A2058, PD184352 - 1 uM, ligand 0.4 ng/ml
  ability of recombinant RTK ligand to confer resistance: 0.99
A2058, PD184352 - 1 uM, ligand 1.6 ng/ml
  ability of recombinant RTK ligand to confer resistance: 0.97
A2058, PD184352 - 1 uM, ligand 6.25 ng/ml
  ability of recombinant RTK ligand to confer resistance: 0.94
A2058, PD184352 - 1 uM, ligand 25 ng/ml
  ability of recombinant RTK ligand to confer resistance: 1.03
A2058, PD184352 - 1 uM, ligand 100 ng/ml
  ability of recombinant RTK ligand to confer resistance: 1.10
A2058, PLX4720 - 2 uM, ligand 0.4 ng/ml
  ability of recombinant RTK ligand to confer resistance: 1.00
A2058, PLX4720 - 2 uM, ligand 1.6 ng/ml
  ability of recombinant RTK ligand to confer resistance: 0.95
A2058, PLX4720 - 2 uM, ligand 6.25 ng/ml
  ability of recombinant RTK ligand to confer resistance: 0.95
A2058, PLX4720 - 2 uM, ligand 25 ng/ml
  ability of recombinant RTK ligand to confer resistance: 0.98
A2058, PLX4720 - 2 uM, ligand 100 ng/ml
  ability of recombinant RTK ligand to confer resistance: 1.15
C32, PD184352 - 1 uM, ligand 0.4 ng/ml
  ability of recombinant RTK ligand to confer resistance: 1.03
C32, PD184352 - 1 uM, ligand 1.6 ng/ml
  ability of recombinant RTK ligand to confer resistance: 1.01
C32, PD184352 - 1 uM, ligand 6.25 ng/ml
  ability of recombinant RTK ligand to confer resistance: 1.06
C32, PD184352 - 1 uM, ligand 25 ng/ml
  ability of recombinant RTK ligand to confer resistance: 1.03
C32, PD184352 - 1 uM, ligand 100 ng/ml
  ability of recombinant RTK ligand to confer resistance: 0.95
C32, PLX4720 - 2 uM, ligand 0.4 ng/ml
  ability of recombinant RTK ligand to confer resistance: 1.09
C32, PLX4720 - 2 uM, ligand 1.6 ng/ml
  ability of recombinant RTK ligand to confer resistance: 0.99
C32, PLX4720 - 2 uM, ligand 6.25 ng/ml
  ability of recombinant RTK ligand to confer resistance: 1.02
C32, PLX4720 - 2 uM, ligand 25 ng/ml
  ability of recombinant RTK ligand to confer resistance: 1.01
C32, PLX4720 - 2 uM, ligand 100 ng/ml
  ability of recombinant RTK ligand to confer resistance: 0.94
Colo 829, PD184352 - 1 uM, ligand 0.4 ng/ml
  ability of recombinant RTK ligand to confer resistance: 1.03
Colo 829, PD184352 - 1 uM, ligand 1.6 ng/ml
  ability of recombinant RTK ligand to confer resistance: 0.99
Colo 829, PD184352 - 1 uM, ligand 6.25 ng/ml
  ability of recombinant RTK ligand to confer resistance: 0.98
Colo 829, PD184352 - 1 uM, ligand 25 ng/ml
  ability of recombinant RTK ligand to confer resistance: 0.98
Colo 829, PD184352 - 1 uM, ligand 100 ng/ml
  ability of recombinant RTK ligand to confer resistance: 0.93
Colo 829, PLX4720 - 2 uM, ligand 0.4 ng/ml
  ability of recombinant RTK ligand to confer resistance: 1.02
Colo 829, PLX4720 - 2 uM, ligand 1.6 ng/ml
  ability of recombinant RTK ligand to confer resistance: 1.00
Colo 829, PLX4720 - 2 uM, ligand 6.25 ng/ml
  ability of recombinant RTK ligand to confer resistance: 0.96
Colo 829, PLX4720 - 2 uM, ligand 25 ng/ml
  ability of recombinant RTK ligand to confer resistance: 0.95
Colo 829, PLX4720 - 2 uM, ligand 100 ng/ml
  ability of recombinant RTK ligand to confer resistance: 0.94
G-361, PD184352 - 1 uM, ligand 0.4 ng/ml
  ability of recombinant RTK ligand to confer resistance: 1.09
G-361, PD184352 - 1 uM, ligand 1.6 ng/ml
  ability of recombinant RTK ligand to confer resistance: 0.95
G-361, PD184352 - 1 uM, ligand 6.25 ng/ml
  ability of recombinant RTK ligand to confer resistance: 1.03
G-361, PD184352 - 1 uM, ligand 25 ng/ml
  ability of recombinant RTK ligand to confer resistance: 0.91
G-361, PD184352 - 1 uM, ligand 100 ng/ml
  ability of recombinant RTK ligand to confer resistance: 0.91
G-361, PLX4720 - 2 uM, ligand 0.4 ng/ml
  ability of recombinant RTK ligand to confer resistance: 0.98
G-361, PLX4720 - 2 uM, ligand 1.6 ng/ml
  ability of recombinant RTK ligand to confer resistance: 0.82
G-361, PLX4720 - 2 uM, ligand 6.25 ng/ml
  ability of recombinant RTK ligand to confer resistance: 1.04
G-361, PLX4720 - 2 uM, ligand 25 ng/ml
  ability of recombinant RTK ligand to confer resistance: 0.89
G-361, PLX4720 - 2 uM, ligand 100 ng/ml
  ability of recombinant RTK ligand to confer resistance: 0.87
SK-MEL-5, PD184352 - 1 uM, ligand 0.4 ng/ml
  ability of recombinant RTK ligand to confer resistance: 1.01
SK-MEL-5, PD184352 - 1 uM, ligand 1.6 ng/ml
  ability of recombinant RTK ligand to confer resistance: 0.97
SK-MEL-5, PD184352 - 1 uM, ligand 6.25 ng/ml
  ability of recombinant RTK ligand to confer resistance: 1.01
SK-MEL-5, PD184352 - 1 uM, ligand 25 ng/ml
  ability of recombinant RTK ligand to confer resistance: 0.96
SK-MEL-5, PD184352 - 1 uM, ligand 100 ng/ml
  ability of recombinant RTK ligand to confer resistance: 0.97
SK-MEL-5, PLX4720 - 2 uM, ligand 0.4 ng/ml
  ability of recombinant RTK ligand to confer resistance: 1.07
SK-MEL-5, PLX4720 - 2 uM, ligand 1.6 ng/ml
  ability of recombinant RTK ligand to confer resistance: 1.02
SK-MEL-5, PLX4720 - 2 uM, ligand 6.25 ng/ml
  ability of recombinant RTK ligand to confer resistance: 1.07
SK-MEL-5, PLX4720 - 2 uM, ligand 25 ng/ml
  ability of recombinant RTK ligand to confer resistance: 1.08
SK-MEL-5, PLX4720 - 2 uM, ligand 100 ng/ml
  ability of recombinant RTK ligand to confer resistance: 1.04
SK-MEL-28, PD184352 - 1 uM, ligand 0.4 ng/ml
  ability of recombinant RTK ligand to confer resistance: 1.04
SK-MEL-28, PD184352 - 1 uM, ligand 1.6 ng/ml
  ability of recombinant RTK ligand to confer resistance: 1.04
SK-MEL-28, PD184352 - 1 uM, ligand 6.25 ng/ml
  ability of recombinant RTK ligand to confer resistance: 0.91
SK-MEL-28, PD184352 - 1 uM, ligand 25 ng/ml
  ability of recombinant RTK ligand to confer resistance: 0.97
SK-MEL-28, PD184352 - 1 uM, ligand 100 ng/ml
  ability of recombinant RTK ligand to confer resistance: 1.07
SK-MEL-28, PLX4720 - 2 uM, ligand 0.4 ng/ml
  ability of recombinant RTK ligand to confer resistance: 0.97
SK-MEL-28, PLX4720 - 2 uM, ligand 1.6 ng/ml
  ability of recombinant RTK ligand to confer resistance: 1.12
SK-MEL-28, PLX4720 - 2 uM, ligand 6.25 ng/ml
  ability of recombinant RTK ligand to confer resistance: 0.99
SK-MEL-28, PLX4720 - 2 uM, ligand 25 ng/ml
  ability of recombinant RTK ligand to confer resistance: 1.08
SK-MEL-28, PLX4720 - 2 uM, ligand 100 ng/ml
  ability of recombinant RTK ligand to confer resistance: 0.99
